Results as given in patent US20150253341A1 (Merck Sharp & Dohme, published 2015).

Molecular target: human Tau protein (human, UniProt P10636-8 1-441, limits assumed)
Assay: method not stated

human Tau protein, sequence (P10636 other isoform, or with tags, fused parts or gaps limits assumed): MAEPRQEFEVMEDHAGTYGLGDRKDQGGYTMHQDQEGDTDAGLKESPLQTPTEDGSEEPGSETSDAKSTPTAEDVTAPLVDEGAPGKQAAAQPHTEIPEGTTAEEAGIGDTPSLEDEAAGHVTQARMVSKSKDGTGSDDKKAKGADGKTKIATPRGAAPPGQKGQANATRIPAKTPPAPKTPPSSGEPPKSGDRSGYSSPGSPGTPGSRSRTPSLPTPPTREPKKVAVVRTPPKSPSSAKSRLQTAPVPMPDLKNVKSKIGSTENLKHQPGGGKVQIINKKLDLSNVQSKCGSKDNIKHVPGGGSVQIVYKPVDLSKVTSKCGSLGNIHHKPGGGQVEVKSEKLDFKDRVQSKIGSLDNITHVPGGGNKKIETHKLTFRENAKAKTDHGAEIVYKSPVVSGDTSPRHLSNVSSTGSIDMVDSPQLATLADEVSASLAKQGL

Kd: 9.7 nM
B1: mouse monoclonal anti-Tau antibody clone 13A6 (antibody, V domains shown)
VH: EVQLQQSGAELVRPGASVKLPCTASGFNIKDDYMNWVMQRPERGLEWIGWIDPENGDTAYASKFQGKATMTADTSSNTAYLQLSSLTSEDTAVYYCTSGGRFDYWGQGTSLTVSS
VL: DVLMTQTPLSLPVSLGDQASISCRSSQSIVHSNGSTYLEWYLQKPGQSPKLLIYKVSNRFSGVPDRFSGSGSGTDFTLKINRVEAEDLGVYYCFQGSHVPWTFGGGTKLEIK
notes: Mouse monoclonal from a hybridoma; also called mAb 13A6; antibody 13A6
